Molecular target: T1, Aβ42-GFP (Homo sapiens, UniProt P05067)
T1 construct: a chimeric fusion of the human Aβ(1-42) peptide (Aβ42) with GFP; expressed in transfected cells; host or cells: E. coli BL21(DE3)
Assay: High-throughput sequencing of pSICLOPPS vectors isolated after bacterial sorting for enhanced Aβ42-GFP fluorescence
Details: for Reads/Total TXXXR reads (%) / Reads/Total pentapeptide reads (%) / Reads/Total peptide reads (%): after the second round of bacterial sorting; for Reads/Total TXXXR reads (%): relative to total TXXXR reads; for Reads/Total pentapeptide reads (%): relative to total pentapeptide reads; for Reads/Total peptide reads (%): relative to total peptide reads; for Number of reads: high-throughput sequencing of isolated pSICLOPPS-NuX1X2X3-X5 vectors after the second round of bacterial sorting for enhanced Aβ42-GFP fluorescence, selected cyclo-TXXXR pentapeptides
Excerpt: On the other hand, very few bioactive sequences resembling AβC5-34 should exist. […] The peptide-encoding vectors contained in these clones were isolated and the peptide-encoding region of approximately 5.6 million of these plasmids was sequenced using an Ion Torrent high-throughput sequencing platform. […] First, pentapeptides were the dominant peptide species within the sorted pool (FIG. 12D), in agreement with previous observations (FIG. 8G). Second, the most prevalent motif among the selected pentapeptide sequences were TXXXR pentapeptides (˜47% of the selected pentapeptide-encoding pSICLOPPS plasmids; ˜42% of the unique selected pentapeptide sequences) (Table 1), in accordance with previous observations (FIG. 8G). […] At position 2, Thr, Ala, and Val were preferred, while aromatic residues (Phe, Trp, Tyr) were completely excluded from the selected TXXXR peptide pool, in full agreement with our site-directed mutagenesis studies. At the highly variable position 3, the complete absence of the negatively charged amino acids Glu and Asp among the selected sequences was notable (FIG. 12E). […] It is noteworthy, that Lys and Gln residues were practically absent from all positions, while the β sheet-breaking amino acid Pro that is typically included in designed peptide-based inhibitors of amyloid aggregation appeared with strikingly low frequencies (FIG. 12E).
Electrocompetent E. coli BL21(DE3) cells (Novagen, USA) carrying either the expression vector pETSOD1(A4V)-GFP, which produces SOD1(A4V)-GFP under control of the strong bacteriophage T7 promoter, or pETAβ42-GFP, which produces Aβ42-GFP under control of the T7 promoter, were co-transformed with the combined pSICLOPPS-NuX1X2X3-X5 vector library. Approximately 10^8 transformants carrying both the vector library and either pETSOD1(A4V)-GFP or pETAβ42-GFP vectors were harvested, pooled together, and grown in Luria-Bertani (LB) liquid medium containing either 0.005% (pETSOD1(A4F)-GFP) or 0.002% (pETAβ42-GFP) L-arabinose—the inducer of cyclic peptide production—at 37° C. with shaking. When the optical density at 600 nm (OD600) of the bacterial culture was about 0.5, 0.01 (pETSOD1(A4F)-GFP) or 0.1 (pETAβ42-GFP) mM isopropyl-β-D-thiogalactoside (IPTG) was added to the medium to induce overexpression of the reporter. […] The isolated cells were re-grown and screened for additional rounds in an identical manner until the desired enrichment in high-fluorescence clones was achieved.
For the characterization of the initial libraries, a combined pSICLOPPS-NuX1X2X3-X5 vector library was prepared containing approximately equal amounts of each one of the tetra-, penta- and hexapeptide sub-libraries. These samples were digested with NcoI and BsrGI and the resulting ˜250 bp product that contained the variable peptide-encoding region was isolated. High-throughput sequencing analysis was performed using an Ion Torrent high-throughput sequencing platform. From the obtained data, all the sequences with mismatches outside of the variable peptide-encoding region were removed, and only the 12-, 15- or 18-bp-long peptide-encoding sequences were subjected to further analysis. The libraries of the selected cyclic peptides that enhance either SOD1(A4V)-GFP or Aβ42-GFP fluorescence were sequenced in a similar manner, with the only exception being that all sequences including stop codons were discarded from subsequent analysis.

Substance | Reads/Total TXXXR reads (%) | Reads/Total pentapeptide reads (%) | Reads/Total peptide reads (%) | Number of reads
AβC5-245 (TTRFR; cyclic) | 0.019 | 0.009 | 0.008 | 364
AβC5-248 (TTTHR; cyclic) | 0.018 | 0.008 | 0.007 | 339
AβC5-252 (TVIWR; cyclic) | 0.017 | 0.008 | 0.007 | 331
AβC5-253 (TTWFR; cyclic) | 0.017 | 0.008 | 0.007 | 327
AβC5-255 (TTSRR; cyclic) | 0.017 | 0.008 | 0.007 | 325
AβC5-258 (TTSCR; cyclic) | 0.016 | 0.007 | 0.007 | 301
AβC5-260 (TTWTR; cyclic) | 0.016 | 0.007 | 0.007 | 295
AβC5-262 (TTSSR; cyclic) | 0.015 | 0.007 | 0.006 | 286
AβC5-263 (THLAR; cyclic) | 0.015 | 0.007 | 0.006 | 284
AβC5-264 (TSGAR; cyclic) | 0.015 | 0.007 | 0.006 | 282
AβC5-266 (TTLRR; cyclic) | 0.014 | 0.007 | 0.006 | 274
AβC5-270 (TATWR; cyclic) | 0.014 | 0.007 | 0.006 | 266
AβC5-272 (TCMWR; cyclic) | 0.013 | 0.006 | 0.006 | 254
AβC5-275 (TAHVR; cyclic) | 0.013 | 0.006 | 0.005 | 249
AβC5-276 (TSWAR; cyclic) | 0.013 | 0.006 | 0.005 | 249
AβC5-278 (TTWLR; cyclic) | 0.013 | 0.006 | 0.005 | 241
AβC5-291 (TTLDR; cyclic) | 0.011 | 0.005 | 0.005 | 213
AβC5-294 (TTPHR; cyclic) | 0.011 | 0.005 | 0.005 | 207
AβC5-298 (TTRGR; cyclic) | 0.011 | 0.005 | 0.004 | 201
AβC5-299 (TTVGR; cyclic) | 0.011 | 0.005 | 0.004 | 200

Substance | Reads/Total TXXXR reads (%) | Reads/Total pentapeptide reads (%) | Reads/Total peptide reads (%) | Number of reads
AβC5-301 (TTTRR; cyclic) | 0.010 | 0.005 | 0.004 | 191
AβC5-304 (TSINR; cyclic) | 0.010 | 0.004 | 0.004 | 182
AβC5-305 (TTADR; cyclic) | 0.010 | 0.004 | 0.004 | 181
AβC5-315 (TTSER; head-to-tail cyclic) | 0.008 | 0.004 | 0.003 | 158
AβC5-316 (TTCAR; head-to-tail cyclic) | 0.008 | 0.004 | 0.003 | 157
AβC5-317 (TTAWR; head-to-tail cyclic) | 0.008 | 0.004 | 0.003 | 156
AβC5-320 (TTVER; head-to-tail cyclic) | 0.008 | 0.004 | 0.003 | 150
AβC5-321 (TTTFR; head-to-tail cyclic) | 0.008 | 0.004 | 0.003 | 148
AβC5-323 (TAVDR; head-to-tail cyclic) | 0.008 | 0.004 | 0.003 | 147
AβC5-325 (TVWIR; head-to-tail cyclic) | 0.008 | 0.004 | 0.003 | 144
AβC5-329 (TTVRR; head-to-tail cyclic) | 0.007 | 0.003 | 0.003 | 141
AβC5-333 (THVRR; head-to-tail cyclic) | 0.007 | 0.003 | 0.003 | 137
AβC5-343 (TNLDR; head-to-tail cyclic) | 0.007 | 0.003 | 0.003 | 125
AβC5-344 (TTPGR; head-to-tail cyclic) | 0.007 | 0.003 | 0.003 | 125
AβC5-348 (TTLTR; head-to-tail cyclic) | 0.006 | 0.003 | 0.003 | 119
AβC5-355 (TATVR; head-to-tail cyclic) | 0.006 | 0.003 | 0.003 | 115
AβC5-359 (TAMWR; head-to-tail cyclic) | 0.006 | 0.003 | 0.002 | 110
AβC5-361 (TTKWR; head-to-tail cyclic) | 0.006 | 0.003 | 0.002 | 108
AβC5-362 (TTWDR; head-to-tail cyclic) | 0.006 | 0.003 | 0.002 | 107

Reference: patent US12559863B2, “Macrocyclic modulators of disease associated protein misfolding and aggregation” (RESQ BIOTECH, priority 2017, dated 2026)
